The values that follow come from the DeepSol protein solubility set.

This series is described as follows: soluble on expression in E. coli; label from the status in PepcDB or PDB records.
Regarding “SSVIDKPQVNESAFHRAEPEERESQPETTPQYSPQSVSTTVPERVYQAIDKTPTYPGRTDYEIKPRDRAPSDSSVREARIADSFKRTDWIESKLAPKPNVGKERHAEPAPSKREVHAYHELLKTPDFESQQAEQPTSIESVREVSLPQVTALGKALVVVDEQFVLMSSDSGVALVSLPRSEFYRTKGQLTPSEGALKAQPLLVPLSMKLDTDLVRLAQDYQQDFAQLGIQLKARNDKALMVMGVPAPLRQQNLQNLVPDLLSYAQTWMKGEKASTQMLPALIDWLAVQVTTVKSHYTLSEAIQIIAELEQLRHGQLPLDDKTFVSAVDFSATIAKLKP”, the “soluble on expression in E. coli” value is listed as “not soluble”. The same measure for “GPGSMPWEVKADNAYGIDYNKLIDKFGCKLITKDMIERMERLTGQKAHHFFRRNIFLSHRDFEKILDVYEKGELFYLYTGRGPSSESLHVGHLVPFLFTKYLQDTFKVPLVIQLTDDEKFIFKSNLTLEETHNYAYENMKDIIACGFDPELTFIFTNLEYIAELYPDILRIEKKISCSQIKSIFGFKDSCNVGKFAFPAVQAAPAFSSSFPHIFGGRTDIHCLVPHAIDQDPYFRMVRDVAPRLGYLKPSSIHSIFLPSLQGSQTKMSASVQNSSIFVNDNEESIRNKIMKYAFSGGQATEEEQRRLGANLDVDVSWQYLRFLMEDDEKLEEIGKKYSSGEMLSGEIKSILVQELVKLTKNHQKNREAINDDVIAKFTNKSREQLLKLFINKK”: “soluble”. Turning to “MAHHHHHHMTVHLLWIINQSGQLIAKSSFTAPENIGELGAKPDLQLTMSSILFSTYGMSQELTPNANPVDSAGMTLVECEEHNIHIYETPTLVKFVLVSDSRTRECNALFRELHSLYVEYVMKNPFHIVDEGGIGQPIRIAAFTGAVKRAVDRYHAAGVSNATRK”, the “soluble on expression in E. coli” value is on record as “not soluble”. Then “HFNVLADTPSGLVPLHLRSPQVPAAQQMLNFPEKNKEKPVDLQNFGLRTDIYSKKTLAKSKGASAGREWTEQETLLLLEALEMYKDDWNKVSEHVGSRTQDECILHFLRLPIEDPYLENSDASLGPLAYQPVPFSQSGNPVMSTVAFLASVVDPRVASAAAKAALEEFSRVREEVPLELVEAHVKKVQEAARASGKVDPTYGLESSCIAGTGPDEPEKLEGAEEEKMEADPDGQQPEKAENKVENETDEGDKAQDGENEKNSEKEQDSEVSEDTKSEEKETEENKELTDTCKERESDTGKKKVEHEISEGNVATAAAAALASAATKAKHLAAVEERKIKSLVALLVETQMKKLEIKLRHFEELETIMDREKEALEQQRQQLLTERQNFHMEQLKYAELRARQQMEQQQHGQNPQQAHQHSGGPGLAPLGAAGHPGMMPHQQPPPYPLMHHQMPPPHPPQPGQIPGPGSMMPGQHMPGRMIPTVAANIHPSGSGPTPPGMPPMPGNILGPRVPLTAPNGMYPPPPQQQPPPPPPADGVPPPPAPGPPASAAP”, with “soluble”; and “TIYLYKNSIPSGKNKGENAILIDNKTIVEQLESAAKKEDKKSGESTTEQTQIQSKSVTEQKQPKIIGYTTTGNVHEDNKHIFPIDKLTSDRNFDRKIIVGATEETLDKSNTLQSNEAIVLPAPSKYKSTDTNKVTITQGPNIIGIHVNEKENAETQKFVDW”, with “soluble”; and “MGSDKIHHHHHHMSQYAEMSLVYDQLTQDQPYEKWFEIVKNHCKDESNILDIGCGTGSLTVQLEALGNVTGMDLSVDMLTVAAQKSANVNWLEGDMTSFDLQQQFDIITIFCDSLNYLQDETAVIETFINVYHHLTDSGVFIFDVHTVYKMMTLFNNQSYIDDKGDIFLAWDAVQGDLPLSVYHDMTFFIRHEDETYSRFDESHFQRTFDEKTYLSWLAQVGFKHVETFTDFNIDEHNEDTERLFFIAKK”, with “not soluble”.

With “MTLIEPDMNLRMPDISTTVETLNLISKMEAQKENIRSVIAPEHKHKYKDIENGLKGEEKVLIEQMAQHCEAFKANFKGAAQGDWVKSAMSEIDSIKDDLKKINSLEHHHHHH”, the “soluble on expression in E. coli” value is given as “not soluble”.

In the case of “MGSDKIHHHHHHMRAEIRNLNVKGGHYYLELAEKDADTDKVIASCKATIWKFSASKIVLKFERETGIELASDLNVLIKIRARFDPQYGFSVNIEEIDSSFTLGEIAKRYQQIVERLTQEGLIHKNKLLPTPFDIQNVLVIAPQNAAGLGDFKKDADALERNGVCHFVYQSATFQGNTAAVSLMESLATGLKQWANNFNFPPDLIVIIRGGGAVNDLAYLNDYELAALLCKRSVPIWVGIGHEKDRTILDEIAHRSFDTPSKVIAGIRNHIVERVQEAVDNLQTIKLLSQHQITTYQSKSDQYLQHIKSSAQAQLNSAHQFLEQIKERIQFVSQQQVKFSLSQTESLMREILLQNPKQIQAKGYAIVRSEGKAIRSIHQITNSTITVDMQDGAINANITEVIPNE”, the “soluble on expression in E. coli” value was “not soluble”. On to “MSLTTIKNIESFVYRYPLSKPVITSFGVMNNRPMLILKITDNNGMYGWGEVWCNFPLTGAEHRAKLIDNIFKPLLANFDIITPEKTYEYLVSKTKILSIQSGEPGPIAQCIAGIDIAVHDLIGKVENISLWKKFGGNKNIIPCYASGINPTKPEVTVKDAIKKGYSSFKLKIGFGIKKDLGNIKEIKNILPEKSSLMVDANQAWNLNEAIEACRLLEDLNLCWLEEPIPANSEIKEWIHLKDSTKITLAAGENFNSHREFSSFFQNKVFGYLQPDIAKWGGFTECSKLIKNIIQNKITYCPHYLGGGIGLVASAHLLSASNGKGILEVDINDNPLRSDIVGDIFEKNSGFATLSDIPGLGFEPNLKTISKYLVAHEGHHHHHH”, for which the “soluble on expression in E. coli” value is recorded as “soluble”. For the sequence “MGSDKIHHHHHHMLQAFATQYIVESLGCETEIIDYTADRFNKHYPLDLGLFRFLIDAYQEKKKKAARTKFNDATFQNNIAKRKTSYVEFIHRRLHNIKEVSGFSNLCKLGSEYDAVLIGSDQKWHPGFSFGVDSSFRFVPKSVRTISYATSLGVSEYPKSYWRTSRKAWSRIDYLSVREKTGADIISKVCDNNIHAEVVVDPTYLISCEDWKKIFPVEKKFEDKYIFCYFLGNDEESKKCARRYANLKGLKLVSVVSNESYSEIDQEYADFLMTGESPDSFVNWIRGAECVFTDSFHGTAFSIMNEKQIYVFYRKNTGVKLQRHSRIDDILSLWEIKYRLITDKHREWDSYQEQPIDYTLVTQKVQSERERSMKFLKAALTF”, the “soluble on expression in E. coli” value was “not soluble”. Turning to “MPIKVGINGFGRIGRMVFQALCEDGLLGTEIDVVAVVDMNTDAEYFAYQMRYDTVHGKFKYEVTTTKSSPSVAKDDTLVVNGHRILCVKAQRNPADLPWGKLGVEYVIESTGLFTAKAAAEGHLRGGARKVVISAPASGGAKTLVMGVNHHEYNPSEHHVVSNASCTTNCLAPIVHVLVKEGFGVQTGLMTTIHSYTATQKTVDGVSVKDWRGGRAAAVNIIPSTTGAAKAVGMVIPSTQGKLTGMSFRVPTPDVSVVDLTFTAARDTSIQEIDAALKRASKTYMKGILGYTDEELVSADFINDNRSSIYDSKATLQNNLPKERRFFKIVSWYDNEWGYSHRVVDLVRHMASKDRSARL”, the “soluble on expression in E. coli” value was “soluble”. As for “MKKEKLRTENISFQYPGAATYALKDVSFSLFEGEWVSVIGQNGSGKSTLAKLLNGLFLPEAGTITVNDTMILSEETVWDVRKQIGMVFQNPDNQFVGTTVQDDVVFGLENIGMPREQMVERLNQALRLVRMEDFLNDEPHSLSGGQKQRVAIAGVLALQPSILILDEATSMLDPQGRREVVETVRQLVNEKGITVLSITHDLEEAAQSDRVIILNKGEILEEGTPEQIFKSSHMLQEIGLDVPFSVKIAELLKRNEILLQNTHLTMESLVNELWRLHSKK”, the “soluble on expression in E. coli” value is “not soluble”.

“AHHHHHHGSPDVYEPIMGAFSLARRLWKMIVEKKGLPTGDDVASLLENLGFERVCTGSGLAVFRNRFVIALLIPRENMIVVDFLSSSGELSDALELIAYYDKEIECYVVEILPSNELEYEENLGIEPVIIDGKTFELRSYPVLGDFKQGKDKVVLKIDREVYELWKESGKLDVCPVCGGHLRWKQGKALCTECGIEVVVDEEH”: the “soluble on expression in E. coli” value was “soluble”. Take “MATASQRNFLAVPDWLDAAILISDEQTSDIFDLAWDMDDFWVFGYGSLMWNPGFAFEERQQARLHGYRRSLCISSNFYRGTEEKPGLVLGLERGGSCLGVAFRVRGKDHDPVMAYLRERELVTNVYKERVVSIALANGRRGSAVTYVADPAHEQYIGGLGVAESAVIIAAATGRSGPNTDYLFNTVQHLQEMGIRDSLLESIAASVGTLSAQSAVVSLPLEHHHHHH”: the “soluble on expression in E. coli” value was “not soluble”. As to “GSKKHSVLHLVPVNITSKADSDVTEVMWQPVLRRGRGLEAQGDIVRVWDTGIYLLYSQVLFHDVTFTMGQVVSREGQGRRETLFRCIRSMPSDPDRAYNSCYSAGVFHLHQGDIITVKIPRANAKLSLSPHGTFLGFVKL”, the “soluble on expression in E. coli” value is listed as “soluble”. In the case of “MSLTSVVFLNPGNSTETFWVSYSQFMQAAARDLGLDLRILYAERDPQNTLQQARELFQGRDKPDYLMLVNEQYVAPQILRLSQGSGIKLFIVNSPLTLDQRELIGQSRQNYSDWIGSMVGDDEEAGYRMLKELLHKLGPVPAGHGIELLAFSGLKVTPAAQLRERGLRRALAEHPQVHLRQLVYGEWNRERAYRQAQQLLKRYPKTQLVWSANDEMALGAMQAARELGRKPGTDLLFSGVNSSPEALQALIDGKLSVLEAGHFTLGGWALVALHDDALGLDARRLGGPDWQLSLFQEGHHHHHH”, the “soluble on expression in E. coli” value is on record as “not soluble”. Turning to “MEFRQLRSFVEVVRQGSFTQAAQVRHASQSTISKQVAQLEQSLGVQVLERNGPHVRLTDAGAVVFRRAEEMLRLRRDLLSELDDLSQLNRGELRLGLPLLGADALFAQRFAEYRRRYPNIAVHLVEGGSKTMEQAVLAGELELAGSLTPADDGFDYQPFCNEPLDVLLPAGHPKAAAASVALGELADSPFLLYQQSFTLNDRLLRACLEAGFSPREGGRSGQADFLGALVAANQGVVLLPRVIAREIERPGVVRVLLREPDLRWDIAFIWRRGGYLSRAAQAWLELLREQPLEESPA”, the “soluble on expression in E. coli” value is “not soluble”.

Take “MEYRLKAYYREGEKPSALRRAGKLPGLMYNRHLNRKVYVDLVEFDKVFRQASIHHVIVLELPDGQSLPTLVRQVNLDKRRRRPEHVDFFVLSDEPVEMYVPLRFVGTPAGVRAGGVLQEIHRDILVKVSPRNIPEFIEVDVSGLEIGDSLHASDLKLPPGVELAVSPEETIAAVVPPEDVEKLAEEAAAEVAEPEVIKKGKEEEEE”: the “soluble on expression in E. coli” value is “soluble”. On to “MHSVPSTGFPQSEFSGPFWTGRGVACARPNRYVWTARPSDQSSRRMSTSFSRRLRRLQSQKETALCVGLDPVPARFPPSLQDGRLRTDAVRAFCTTIVEATAPYACAFKPNFAFFEALGPAGLTVLDQVVTTIPDDCLVLGDAKRGDIGHSARHYAASIYEELGLDACTVSPYLGRDSVMPFLEHEGTCTFVLARTSNDGAADLQEACTCDGTPLYRHVARRVQAWNADAPGGAGLVVGATAPAALQDLRSLCPSLPFLVPGVGAQGGDAAAVMDAAATDEGPVLVNSSRSILYASEGPNYANAAADAARALRDALNGGASSSRGAPSPPALEHHHHHH”, for which the “soluble on expression in E. coli” value is “soluble”.

As to “MKERTIQPVNNGLNGNITIPGDKSISHRAVMFGAIAEGTTTIKGFLPGADCLSTISCFKEMGVDIVQNGDEVTVVGKGLEGLQEPKAVLDVGNSGTTIRLMSGILANTPFLSCVQGDTSIAKRPMKRVTNPLKQMGANIDGREEGTFTPLTIRGGDLKAIEYTSPVASAQVKSAILLAGLRAEGVTAVTEPHISRDHTERMLEAFGVKVTREGKTVKLAGGQKLTATDVQVPGDVSSAAFFLVAGAIIPNSKLVLENVGMNPTRTGIIDVLEKMGATFTVEPINEGASEPAANITIETSSLKGIEIGGDIIPRLIDEIPVIALAATQAEGITVIKDAHELKVKETNRIDTVVAELTKLGARIEATDDRMIIYGKSALKGNTVNSYGDHRIGMMLAIAGCIAEGKTIIEDAEAVGVSYPTFFEELQKLAK”, the “soluble on expression in E. coli” value is listed as “not soluble”.
